Results taken from patent publication US20250076311A1 (Chugai, published 2025).

Legend:
[1] = biological target: T1, cynomolgus monkey FcγRIIa3 extracellular domain with C-terminal His-tag (cynomolgus monkey); assay: SPR (BIACORE), antibody captured, FcgR analyte
T1 construct: also called cyno FcgRIIa3; cynoFcγRIIa3; not shown: His-tag added to the C-terminus
T1 chain: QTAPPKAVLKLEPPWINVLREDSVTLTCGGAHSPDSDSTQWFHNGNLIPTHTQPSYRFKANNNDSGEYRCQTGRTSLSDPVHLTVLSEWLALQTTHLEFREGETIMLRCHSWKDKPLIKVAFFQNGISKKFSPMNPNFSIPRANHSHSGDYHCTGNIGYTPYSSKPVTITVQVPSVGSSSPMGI

[2] = biological target: T2, cynomolgus monkey FcγRIIIaS extracellular domain with C-terminal His-tag (cynomolgus monkey, UniProt A3RFZ7 21-206 (rhesus entry)); assay: SPR (BIACORE), antibody captured, FcgR analyte
T2 construct: also called cyno FcgRIIIaS; cynoFcγRIIIaS; not shown: His-tag added to the C-terminus
Target sequence in this assay (A3RFZ7 21-206): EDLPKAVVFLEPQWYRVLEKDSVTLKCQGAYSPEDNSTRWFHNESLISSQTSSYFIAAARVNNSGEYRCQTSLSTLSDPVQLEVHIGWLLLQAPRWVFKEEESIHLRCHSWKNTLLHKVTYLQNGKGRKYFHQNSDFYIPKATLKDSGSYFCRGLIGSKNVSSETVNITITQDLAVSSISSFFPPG

[3] = biological target: T3, human FcγRIIaR extracellular domain with C-terminal His-tag (human, UniProt P12318 34-217); assay: SPR (BIACORE), antibody captured, FcgR analyte
T3 construct: also called human FcgRIIaR; FcγRIIa type R; not shown: His-tag added to the C-terminus
T3 chain: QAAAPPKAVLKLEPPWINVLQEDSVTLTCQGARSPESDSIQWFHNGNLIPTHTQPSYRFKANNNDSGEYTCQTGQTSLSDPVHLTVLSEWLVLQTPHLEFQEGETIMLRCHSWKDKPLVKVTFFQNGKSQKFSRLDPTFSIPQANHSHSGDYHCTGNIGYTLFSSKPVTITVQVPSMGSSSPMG

[4] = biological target: T4, human FcγRIIaH extracellular domain with C-terminal His-tag (human, UniProt P12318 34-217); assay: SPR (BIACORE), antibody captured, FcgR analyte
T4 construct: also called human FcgRIIaH; FcγRIIa type H; not shown: His-tag added to the C-terminus
T4 sequence: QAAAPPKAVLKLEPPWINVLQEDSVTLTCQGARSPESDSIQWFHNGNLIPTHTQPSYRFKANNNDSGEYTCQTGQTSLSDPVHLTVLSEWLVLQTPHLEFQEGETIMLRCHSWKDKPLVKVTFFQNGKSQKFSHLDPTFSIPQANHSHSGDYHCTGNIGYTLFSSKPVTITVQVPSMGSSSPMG

[5] = biological target: T5, cynomolgus monkey FcγRIIa2 extracellular domain with C-terminal His-tag (cynomolgus monkey); assay: SPR Biacore, antibody captured, FcgR analyte
T5 construct: also called cyno FcgRIIa2; cynoFcγRIIa2; not shown: His-tag added to C-terminus
T5 chain: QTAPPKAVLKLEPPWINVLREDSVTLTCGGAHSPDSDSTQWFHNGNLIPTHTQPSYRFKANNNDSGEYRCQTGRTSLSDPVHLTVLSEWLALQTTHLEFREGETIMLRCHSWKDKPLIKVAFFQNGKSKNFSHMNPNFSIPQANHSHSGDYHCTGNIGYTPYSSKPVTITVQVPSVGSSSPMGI

[6] = biological target: T6, cynomolgus monkey FcγRIIa3 extracellular domain with C-terminal His-tag (cynomolgus monkey); assay: SPR Biacore, antibody captured, FcgR analyte
T6 construct: also called cyno FcgRIIa3; cynoFcγRIIa3; not shown: His-tag added to C-terminus
T6 chain: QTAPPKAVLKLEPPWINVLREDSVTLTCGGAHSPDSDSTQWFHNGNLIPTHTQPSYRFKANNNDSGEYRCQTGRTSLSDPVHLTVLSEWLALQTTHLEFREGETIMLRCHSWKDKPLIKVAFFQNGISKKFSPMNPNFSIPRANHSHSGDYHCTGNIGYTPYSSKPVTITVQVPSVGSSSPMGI

[7] = biological target: T7, cynomolgus monkey FcγRIIIaS extracellular domain with C-terminal His-tag (cynomolgus monkey, UniProt A3RFZ7 21-206 (rhesus entry)); assay: SPR Biacore, antibody captured, FcgR analyte
T7 construct: also called cyno FcgRIIIaS; cynoFcγRIIIaS; not shown: His-tag added to C-terminus

[8] = biological target: T8, human FcγRIIb extracellular domain with C-terminal His-tag (human, UniProt P31994 43-217); assay: SPR Biacore, antibody captured, FcgR analyte
T8 construct: also called human FcgRIIb; not shown: His-tag added to C-terminus
T8 sequence: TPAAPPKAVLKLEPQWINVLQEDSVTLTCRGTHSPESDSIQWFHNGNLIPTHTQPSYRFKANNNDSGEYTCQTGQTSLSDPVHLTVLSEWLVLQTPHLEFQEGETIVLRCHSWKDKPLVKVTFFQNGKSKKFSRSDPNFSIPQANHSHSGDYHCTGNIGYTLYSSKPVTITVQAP

[9] = biological target: T9, cynomolgus monkey FcγRIIb extracellular domain with C-terminal His-tag (cynomolgus monkey); assay: SPR Biacore, antibody captured, FcgR analyte
T9 construct: also called cyno FcgRIIb; cynoFcγRIIb; not shown: His-tag added to C-terminus
T9 chain: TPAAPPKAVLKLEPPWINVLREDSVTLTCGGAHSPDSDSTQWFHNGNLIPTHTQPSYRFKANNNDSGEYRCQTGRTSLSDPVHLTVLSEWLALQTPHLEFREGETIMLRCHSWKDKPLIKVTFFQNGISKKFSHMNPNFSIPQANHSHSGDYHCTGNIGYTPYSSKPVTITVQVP

B1: M103205H795-MY434/M103202L889-SK1 (antibody, human IgG1, kappa, name in EU numbering)
heavy: QVTLKESGPVLVKPTETLTLTCTVSGIDLSHDDISWVRQAPGKGLEWVGIISYAGSTYYASWAKGRLTISKDTSKNQVVLTMTNMDPVDTATYYCARGVPAYSHGGDLWGQGTLVTVSSASTKGPSVFPLAPSSKSTSGGTAALGCLVKDYFPEPVTVSWNSGALTSGVHTFPAVLQSSGLYSLSSVVTVPSSSLGTQTYICNVNHKPSNTKVDKKVEPKSCDKTHTCPPCPAPELWNGPSVFLFPPKPKDTLMISRTPEVTCVVVDVSDEDPEVKFNWYVDGVEVHNAKTKPREEQYNSTYRVVSVLTVLHQDWLNGKEYKCKVSNKALPKPIEKTISKAKGQPREPQVYTLPPSREEMTKNQVSLTCLVKGFYPSDIAVEWESNGQPENNYKTTPPVLDSDGSFFLYSKLTVDKSRWQQGNVFSCSVMHEALHNHYTQKSLSLSP
light: DIVMTQSPATLSLSPGERATLSCTSSQSVYHANWLSWFQQKPGQPPKLLIYWASTLAYGVPSRFSGSGSGTDFTLTISSLQPEDAATYYCAGGYGGGRYAFGQGTKVEIKRTVAAPSVFIFPPSDEQLKSGTASVVCLLNNFYPREAKVQWKVDNALQSGNSQESVTEQDSKDSTYSLSSTLTLSKADYEKHKVYACEVTHQGLSSPVTKSFNRGEC
notes: Fc variant of MS1032LO06-SG1; positions in EU numbering
With B1 the Kd [1] was 6400 nM, the Kd [2] was 11000 nM and the Kd [3] was 19 nM. It also gave a Kd [4] of 1600 nM.

B2: M103205H795-MY211/M103202L889-SK1 (antibody, human IgG1, kappa, name in EU numbering)
heavy: QVTLKESGPVLVKPTETLTLTCTVSGIDLSHDDISWVRQAPGKGLEWVGIISYAGSTYYASWAKGRLTISKDTSKNQVVLTMTNMDPVDTATYYCARGVPAYSHGGDLWGQGTLVTVSSASTKGPSVFPLAPSSKSTSGGTAALGCLVKDYFPEPVTVSWNSGALTSGVHTFPAVLQSSGLYSLSSVVTVPSSSLGTQTYICNVNHKPSNTKVDKKVEPKSCDKTHTCPPCPAPELLNGPVVFLFPPKPKDTLMISRTPEVTCVVVDVSDEDPEVKFNWYVDGVEVHNAKTKPREEQYNSTYRVVSVLTVLHQDWLNGKEYKCKVSNTALPKPIEKTISKAKGQPREPQVYTLPPSREEMTKNQVSLTCLVKGFYPSDIAVEWESNGQPENNYKTTPPVLDSDGSFFLYSKLTVDKSRWQQGNVFSCSVMHEALHNHYTQKSLSLSP
light: DIVMTQSPATLSLSPGERATLSCTSSQSVYHANWLSWFQQKPGQPPKLLIYWASTLAYGVPSRFSGSGSGTDFTLTISSLQPEDAATYYCAGGYGGGRYAFGQGTKVEIKRTVAAPSVFIFPPSDEQLKSGTASVVCLLNNFYPREAKVQWKVDNALQSGNSQESVTEQDSKDSTYSLSSTLTLSKADYEKHKVYACEVTHQGLSSPVTKSFNRGEC
notes: substitutions in EU numbering, introduced into M103205H795-SG1
With B2 the “KD fold (SG1 = 1)” value [5] was 8.8 fold, the “KD fold (SG1 = 1)” value [6] was 6.5 fold and the “KD fold (SG1 = 1)” value [7] was 0.17 fold.

B3: M103205H795-MY207/M103202L889-SK1 (antibody, human IgG1, kappa, name in EU numbering)
heavy: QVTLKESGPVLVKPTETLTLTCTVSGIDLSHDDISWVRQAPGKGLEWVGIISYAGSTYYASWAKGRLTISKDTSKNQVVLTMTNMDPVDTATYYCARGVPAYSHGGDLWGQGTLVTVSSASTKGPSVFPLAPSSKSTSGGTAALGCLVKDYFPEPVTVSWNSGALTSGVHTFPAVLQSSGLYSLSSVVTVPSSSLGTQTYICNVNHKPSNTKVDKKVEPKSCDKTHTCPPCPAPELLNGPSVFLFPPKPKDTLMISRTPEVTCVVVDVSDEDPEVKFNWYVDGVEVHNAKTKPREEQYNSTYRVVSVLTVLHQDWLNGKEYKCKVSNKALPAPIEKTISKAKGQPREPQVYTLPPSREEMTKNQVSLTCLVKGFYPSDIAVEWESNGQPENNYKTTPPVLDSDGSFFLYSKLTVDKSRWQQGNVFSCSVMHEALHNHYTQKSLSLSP
light: DIVMTQSPATLSLSPGERATLSCTSSQSVYHANWLSWFQQKPGQPPKLLIYWASTLAYGVPSRFSGSGSGTDFTLTISSLQPEDAATYYCAGGYGGGRYAFGQGTKVEIKRTVAAPSVFIFPPSDEQLKSGTASVVCLLNNFYPREAKVQWKVDNALQSGNSQESVTEQDSKDSTYSLSSTLTLSKADYEKHKVYACEVTHQGLSSPVTKSFNRGEC
notes: as for B2
With B3 the “KD fold (SG1 = 1)” value [5] was 3.6 fold and the “KD fold (SG1 = 1)” value [7] was 0.09 fold.

B4: M103205H795-MY208/M103202L889-SK1 (antibody, human IgG1, kappa, name in EU numbering)
heavy: QVTLKESGPVLVKPTETLTLTCTVSGIDLSHDDISWVRQAPGKGLEWVGIISYAGSTYYASWAKGRLTISKDTSKNQVVLTMTNMDPVDTATYYCARGVPAYSHGGDLWGQGTLVTVSSASTKGPSVFPLAPSSKSTSGGTAALGCLVKDYFPEPVTVSWNSGALTSGVHTFPAVLQSSGLYSLSSVVTVPSSSLGTQTYICNVNHKPSNTKVDKKVEPKSCDKTHTCPPCPAPELLNGPSVFLFPPKPKDTLMISRTPEVTCVVVDVSDEDPEVKFNWYVDGVEVHNAKTKPREELYNSTYRVVSVLTVLHQDWLNGKEYKCKVSNKALPAPIEKTISKAKGQPREPQVYTLPPSREEMTKNQVSLTCLVKGFYPSDIAVEWESNGQPENNYKTTPPVLDSDGSFFLYSKLTVDKSRWQQGNVFSCSVMHEALHNHYTQKSLSLSP
light: DIVMTQSPATLSLSPGERATLSCTSSQSVYHANWLSWFQQKPGQPPKLLIYWASTLAYGVPSRFSGSGSGTDFTLTISSLQPEDAATYYCAGGYGGGRYAFGQGTKVEIKRTVAAPSVFIFPPSDEQLKSGTASVVCLLNNFYPREAKVQWKVDNALQSGNSQESVTEQDSKDSTYSLSSTLTLSKADYEKHKVYACEVTHQGLSSPVTKSFNRGEC
notes: as for B2
For B4, the “KD fold (SG1 = 1)” value [5] was 3.4 fold and the “KD fold (SG1 = 1)” value [7] was 0.13 fold.

B5: M103205H795-MY184/M103202L889-SK1 (antibody, human IgG1, kappa, name in EU numbering)
heavy: QVTLKESGPVLVKPTETLTLTCTVSGIDLSHDDISWVRQAPGKGLEWVGIISYAGSTYYASWAKGRLTISKDTSKNQVVLTMTNMDPVDTATYYCARGVPAYSHGGDLWGQGTLVTVSSASTKGPSVFPLAPSSKSTSGGTAALGCLVKDYFPEPVTVSWNSGALTSGVHTFPAVLQSSGLYSLSSVVTVPSSSLGTQTYICNVNHKPSNTKVDKKVEPKSCDKTHTCPPCPAPELLNGPSVFLFPPKPKDTLMISRTPEVTCVVVDVSEEDPEVKFNWYVDGVEVHNAKTKPREEQYNSTYRVVSVLTVLHQDWLNGKEYKCKVSNKALPAPIEKTISKAKGQPREPQVYTLPPSREEMTKNQVSLTCLVKGFYPSDIAVEWESNGQPENNYKTTPYVLDSDGSFFLYSKLTVDKSRWQQGNVFSCSVMHEALHNHYTQKSLSLSP
light: DIVMTQSPATLSLSPGERATLSCTSSQSVYHANWLSWFQQKPGQPPKLLIYWASTLAYGVPSRFSGSGSGTDFTLTISSLQPEDAATYYCAGGYGGGRYAFGQGTKVEIKRTVAAPSVFIFPPSDEQLKSGTASVVCLLNNFYPREAKVQWKVDNALQSGNSQESVTEQDSKDSTYSLSSTLTLSKADYEKHKVYACEVTHQGLSSPVTKSFNRGEC
notes: EU numbering
With B5 the “KD fold (SG1 = 1)” value [5] was 2.8 fold, the “KD fold (SG1 = 1)” value [8] was 4.7 fold and the Kd [9] was 900 nM. The “KD fold (SG1 = 1)” value [7] was 0.11 fold and the Kd [7] was 3300 nM.
